Molecular target: ACE-2 receptor on the surface of Vero-E6 cells (African green monkey (endogenous in Vero-E6))
Test: flow cytometry on cells

Substance	percent of cells bound to RBD [%]
commercially available recombinant RBD (from UniProt P0DTC2) (domain or fragment)	78
recombinant SARS-CoV-2 RBD (Pro330-Ser530) expressed in Sf9 insect cells (from UniProt P0DTC2 330-530) (domain or fragment)	60
